Assay results published in paper PMC9817130 (2023).

How the values were obtained:
[1] = target: T1, SARS-CoV-2 WT RBD protein (Sino Biological) (SARS-CoV-2, UniProt P0DTC2 319-541); experiment: SPR
[2] = target: T1, SARS-CoV-2 WT RBD protein (Sino …); experiment: SPR; remark: listed apart in the source

Row | Binder | koff [1] | Kd [2]
1 | P2B4 monoclonal antibody (IgG) (antibody, V domains shown) VH: EVQLVESGGGLVQPGRSLRLSCAASGFNFDDYAMHWARQVPGKGLEWVSGISGNSGSVEYADSVKGRFAMSRDNAKNSLYLEMNSLRTEDTALYYCAKETTPWGIYRSGGLDVWGQGTTVTVSS VL: DIQMTQSPSSLSASVGDRVTITCRASQSIHSFLSWYQQKPGKAPKLLINSASTLQSGVPPWFSGSGSGTDFTLTISSLQPEDFATYYCQQSYIAPWTFGQGTKVEIK | 1.37e-05 s⁻¹ | 0.143 nM
2 | P2D9 monoclonal antibody (IgG) (antibody, V domains shown) VH: EVQLVESGAEVKKPGSSVKVSCKASGDTFYTFDISWVRQAPGQGLEWMGGISPVFDAPNYAQKFQDRVTITADKSTSTAYMELSSLRSEDTAIYYCVKPTYSNYVWGIGAFDVWGQGTTVTVSS VL: EIVLTQSPGTLSLSPGERATLSCRASQSVGNIYLAWYQQKPGQAPRLLIYGASTRATGIPDRFSGSGSGTDFTLTISRLEPEDFAVYYCQQYGDSLWTFGQGTKVEIK | 4.34e-05 s⁻¹ | 0.202 nM
3 | P3E6 monoclonal antibody (IgG) (antibody, V domains shown) VH: EVQLLDSGGGLVQPGGSLRLSCAVSGFTFSNYAMNWVRQTPGKELEWVSAISGTGDDTHYADSVRGRFTISSDNSKNTVYLQMNSLRVEDTAIYYCAKAISRYPWGCLDYWGQGTLVTVSS VL: not shown | 0.00014 s⁻¹ | 0.558 nM
4 | P1D9 monoclonal antibody (IgG) (antibody, V domains shown) VH: EVQLVQSGAEVKKPGSSVRVSCKASGGTFGDDSITWVRQAPGQGLEWMGGIFPLIGKTHYAQRFQGRLTVTADKSTSTAYMELSGLRSEDTAIYYCARDWGTTLTAFDIWGQGTMVTVSS VL: DIQMTQSPSSLSASVGDTVTITCRAGQTINTFLNWYQQKPGKAPKLLIYAASTLQSGVPSRFSGSGSGTDFTLTINSLQPEDFATYYCQQSYSNLYTFSQGTKVEIK | 7.68e-05 s⁻¹ | 0.188 nM
